Measurements published in the RNAGym collection of RNA variant scans (doi:10.1073/pnas.2313332121).

B1: TPR t1 (parent)
chain: GACCAAUCUGCCCUCAGAGCUCGAGAACAUCUUCGGAUGCAGAGGAGGCAGGCUUCGGUGGCGCGAUAGCGCCAACGUCCUCAACCUCCAAUGCAUCCCACCACAUGAUGAUGCCUGAAGAGCCUUGGUUUUUUG

Variants of: B1
Assay: polymerase ribozyme fitness, log enrichment relative to wild type (log ratio); higher = more active; in vitro selection for triplet polymerase activity
Outline: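 Mutant libraries of both subunits of a heterodimeric triplet polymerase ribozyme were PCR-built, transcribed, and selected once in triplicate, with frozen incubation at −7 °C and capture of gel-excised extended constructs on streptavidin beads before RT-PCR. Illumina sequencing of input and output libraries was filtered to genotypes with ≥10 input reads and ≥1 read per output. Fitness is the logarithm of genotype enrichment over wild-type enrichment, using inverse-variance-weighted replicate averages. The logarithm is base 2.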

| Variant | polymerase ribozyme fitness (log ratio) |
| --- | --- |
| G77C U106A A111C C114G U131C | -5.23 |
| G77C U125C | -3.91 |
| G77U | -0.194 |
| G77U A91U U132A | -2.14 |
| G77U A91U U133C | -1.24 |
| G77U A100C A118U U129C | -1.45 |
| G77U A111U | -3.23 |
| G77U A119G | -0.758 |
| G77U C88G | -1.02 |
| G77U C88G U92A G113C G122A C123G | -4.68 |
| G77U C89U A91U U116C G120C G135A | -2.85 |
| G77U C94U | 0.0625 |
| G77U C101G G127A | -2.44 |
| G77U C114G A121C | -1.7 |
| G77U C115G A118C | -5.42 |
| G77U C115G G128C | -2.98 |
| G77U C123G | 1.23 |
| G77U C123U | 1.47 |
| G77U C124G | 1.96 |
| G77U G113A | -1.38 |
| G77U U78C A95U C123G | 0.706 |
| G77U U81G | -3.24 |
| G77U U131A | -0.157 |
| G77U U132A | -0.53 |

| Variant | polymerase ribozyme fitness (log ratio) |
| --- | --- |
| U78A C79A A95C U133A | -4.23 |
| U78A C80A C94G U133A | -6.19 |
| U78A C82G C115A U130A | -0.912 |
| U78A C89U C104U | -1.1 |
| U78A C94A U125G | -2.31 |
| U78A C104U C115U | -1.54 |
| U78A C114A | -1.63 |
| U78A C115G | -2.13 |
| U78A C115G U116G | -3.11 |
| U78A C123U | 1.1 |
| U78A C124G | 1.42 |
| U78A G107C | -6.06 |
| U78A G117A | -1.76 |
| U78A G122A | -1.42 |
| U78A U92G U125G | -4.08 |
| U78A U112C G120A | -0.475 |
| U78A U130G | -0.269 |
| U78C A83G U106C | -1.19 |
| U78C A105C A121C | -0.547 |
| U78C A118U | 0.929 |
| U78C A121U | 1.42 |
| U78C C80G A121G | -2.75 |
| U78C C85G | -1.82 |
| U78C C86A | -0.372 |

| Variant | polymerase ribozyme fitness (log ratio) |
| --- | --- |
| U78C C88G | -0.636 |
| U78C C88U A121C | 1.67 |
| U78C C94G A108G C114G U130G | -5.42 |
| U78C C94U | -0.58 |
| U78C G93U C124A | 0.632 |
| U78C G113A | -1.36 |
| U78C G117A | -1.35 |
| U78C G117C | -3.6 |
| U78C G127U | -1.04 |
| U78C U87C C115U | -0.381 |
| U78C U92G C114U | -2.3 |
| U78C U106A | 0.00582 |
| U78C U109A | -5.34 |
| U78C U112A | 1.12 |
| U78C U125A | -0.432 |
| U78C U130C | 0.0983 |
| U78G A84U C115U A121C | -3.92 |
| U78G A91C U92G | -3.13 |
| U78G C80U | -0.927 |
| U78G C80U G93U | -1.61 |
| U78G C88U A91U A95U | -3.4 |
| U78G C88U U92G G120C U134G | -1.71 |
| U78G C89A G117A | -4.25 |
| U78G C102U | -1.93 |

| Variant | polymerase ribozyme fitness (log ratio) |
| --- | --- |
| U78G C114U | -2.96 |
| U78G C114U U129G | -4.71 |
| U78G G93A | -0.0742 |
| U78G G93A G120U | -0.265 |
| U78G G107U | -5.32 |
| U78G G110U G127U | -2.47 |
| U78G G113A | -1.05 |
| U78G G113A C124G | -0.667 |
| U78G G113U | -3.89 |
| U78G U96A C124G | 1.43 |
| U78G U109A | -6.21 |
| U78G U116C U133A | -0.304 |
| U78G U130G | -0.347 |
| C79A A95G C101U C123U | -4.17 |
| C79A A95U | -1.9 |
| C79A C85U | -2.34 |
| C79A C88U C101U | -0.735 |
| C79A C94A | -2.38 |
| C79A C101U | -1.4 |
| C79A G107A G117U | -6.98 |
| C79A G113C | -3.64 |
| C79A U106C | -0.96 |
| C79A U112C G127A | -1.43 |
| C79A U129A | -2.44 |

| Variant | polymerase ribozyme fitness (log ratio) |
| --- | --- |
| C79G A83G C89G | -3.62 |
| C79G C82U U130A | -2.13 |
| C79G C85A | -3.62 |
| C79G C85G | -3.02 |
| C79G C89A | -5.03 |
| C79G C89U U112A | -2.07 |
| C79G C101A G135U | -4.68 |
| C79G C114A | -0.594 |
| C79G C123U | 0.127 |
| C79G G120A U130C | -1.26 |
| C79G U81A C98U C102G G107C | -7.84 |
| C79G U87G U92C G120U | -4.54 |
| C79G U96A | -2.96 |
| C79G U126A G128U | -4.31 |
| C79U A95G A105U | -2.87 |
| C79U C82A | -1.23 |
| C79U C89U C102U G120C | -2.83 |
| C79U C94A | -4.5 |
| C79U C94G | -0.831 |
| C79U C94U C98U | -1.64 |
| C79U C124A | 1.12 |
| C79U C124G | 1.81 |
| C79U G93A C102A | -2.33 |
| C79U G113U U116A | -5.49 |

| Variant | polymerase ribozyme fitness (log ratio) |
| --- | --- |
| C79U G122U | 0.0245 |
| C79U U81A | -1.75 |
| C79U U106A U116C U126C | -1.17 |
| C80A A84G C98U | -6.69 |
| C80A A84U | -3.74 |
| C80A C85U C86A U87C | -7.24 |
| C80A C114G G117U | -6.34 |
| C80A U96C C115A | -3.34 |
| C80A U109A | -6.3 |
| C80A U109G | -5.76 |
| C80A U116G G120C C123A | -3.59 |
| C80A U129A | -3.77 |
| C80G U87A U116G A119U C124G | -6.5 |
| C80G U106G G110A C124G | -6.57 |
| C80G U132C | -4.66 |
| C80U A84U | -1.02 |
| C80U C85A | -2.89 |
| C80U C97U | -0.856 |
| C80U C98U | -1.69 |
| C80U C101U A118G A121U U131A | 0.732 |
| C80U C102A U106A U112A | -4.1 |
| C80U U106A | -0.267 |
| C80U U133G | -0.514 |
| U81A A90U | -2.41 |

| Variant | polymerase ribozyme fitness (log ratio) |
| --- | --- |
| U81A A91G U92G | -4.76 |
| U81A C82A C98U | -3.39 |
| U81A C102A | -3.36 |
| U81A G117U | -3.99 |
| U81C C97U C114A | -3.09 |
| U81C C114A | -2.34 |
| U81C G127C | -1.22 |
| U81C U106A | 0.0236 |
| U81G A95U | -6.29 |
| U81G C94G G117U | -6.8 |
| U81G C124A G128C U130G | -2.26 |
| U81G G93A U106A C123U | -3.83 |
| U81G G120A | -3.83 |
| U81G U130A | -3.23 |
| C82A C97G | -5.53 |
| C82A C123U | 0.707 |
| C82A G93C A111C | -0.977 |
| C82A G110U C123U | -2.47 |
| C82A U87A | -0.237 |
| C82A U92A | -3.43 |
| C82G A118U | 0.179 |
| C82G C88U A103C G117C | -5.02 |
| C82G C97A U112C C115G U133G | -6.38 |
